Here are results for three molecules from patent publication US11633499B2, “Anti-TMEM-180 antibody, anticancer drug and cancer testing method” (NATIONAL CANCER CENTER JAPAN, priority 2016, dated 2023).

Data set [1] relates to cell lines derived from cancers (ATCC and JCRB). The data set can be described thus: Reactivity of antibodies to cancer-derived cell lines by FACS (Table 23). In kind it is binding. For orientation: A flow cytometer gives signals particle by particle.
The target in data set [2] is T1, exosomes presenting TMEM-180 from DLD-1 cell line (Homo sapiens, UniProt Q14CX5).
T1 construct: endogenous in cells; host or cells: DLD-1 colon cancer cell line (parent / wild type); culture supernatant exosomes in A20
T1 sequence (Q14CX5 1-517): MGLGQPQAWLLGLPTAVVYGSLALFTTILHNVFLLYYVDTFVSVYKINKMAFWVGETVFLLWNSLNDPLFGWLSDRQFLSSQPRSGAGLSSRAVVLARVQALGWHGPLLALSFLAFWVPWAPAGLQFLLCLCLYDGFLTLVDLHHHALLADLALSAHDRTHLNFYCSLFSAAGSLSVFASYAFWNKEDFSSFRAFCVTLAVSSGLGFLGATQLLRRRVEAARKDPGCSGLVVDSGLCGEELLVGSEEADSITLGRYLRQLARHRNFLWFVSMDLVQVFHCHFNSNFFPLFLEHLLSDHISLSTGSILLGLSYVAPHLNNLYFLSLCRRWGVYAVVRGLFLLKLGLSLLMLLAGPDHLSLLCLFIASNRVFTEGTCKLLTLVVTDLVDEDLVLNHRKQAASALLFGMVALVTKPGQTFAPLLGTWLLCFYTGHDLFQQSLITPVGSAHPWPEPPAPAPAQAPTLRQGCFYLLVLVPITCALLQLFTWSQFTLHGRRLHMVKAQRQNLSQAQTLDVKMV
Put plainly: Detection of TMEM-180 exosomes in culture supernatant (immobilized anti-TMEM-180 antibody, anti-CD9 detection). In kind it is binding. Particulars: immobilized antibody 5 μg/mL; detection with anti-CD9 antibody; FIG. 18. The source says:
Thus, the inventors constructed a system for detecting exosomes in the culture supernatant. In this system, an anti-TMEM-180 antibody was immobilized on the surface of the plate, and exosomes containing TMEM-180 which were bound to the immobilized antibody were detected with an anti-CD9 antibody which CD9 is an exosome maker. The DLD-1 cell line (also referred to as “wild type DLD-1 cell line”) was used as cells. The TMEM-180 knockdown DLD-1 cell line and K562 cell line were used as negative controls.
Specifically, an anti-TMEM-180 antibody was diluted with phosphate buffer such that the concentration will be 5 μg/mL, and then added to a 96 well plate (Maxisorp #442404, Thermo Fisher co., Ltd.) at 50 μL/well. The immobilization reaction was performed by incubation for 2 hours at room temperature or for overnight at 4° C. The plate after the immobilization was washed three times with 300 μL/well of a plate washing solution. The plate was blocked with 200 μL/well of a blocking agent (1% BSA/TBS-T), and allowed to stand for 1 hour at room temperature or for overnight at 4° C. […] Then, the optical density at 450 nm was measured with a plate reader.

The test system of data set [3] is Wildtype DLD-1 cells. The data set can be described thus: Internalization of the antibody. The format is cell-based, human. Particulars: 488-labelled antibody; 37° C.; 1, 3 or 6 hours; FIG. 25.
Procedure: Wildtype DLD-1 cells were plated on a 96-well plate at 5,000 cells/well. The plate was incubated at 37° C. for 18 hours. After washing, a 488-labelled 669 antibody was added to the wells at 2 μL/well and was incubated at 37° C. for certain hours (1 hour, 3 hours, or 6 hours). After the wells were washed three times, a rabbit anti 488 antibody was added at 2 μL/well to stand still at 4° C. for 30 minutes to quench the fluorescence derived from the antibodies binding to the cell surface. After the wells were washed three times, 4% PFA was added at 100 μL/well to stand still at room temperature for 10 minutes. After the wells were washed three times, DAPI (1/500 dilution) was added to the wells at 100 μL/well to stand still at room temperature for 5 minutes. After the wells were washed three times, the wells were subjected to photographing or Array Scan analysis.
Data set [4] has as its system cell lines derived from cancers (ATCC and JCRB). Put plainly: Reactivity of antibodies to cancer-derived cell lines by FACS (Table 23). In kind it is binding. The protocol:
Cancer cells targeted for measurement were cultured in medium and then added to a V-bottom 96-well plate (Corning Incorporated) to a concentration of 1×10^5 cells/well. The plate was centrifuged for 3 minutes at 440×g and 4° C. followed by removing the supernatant, adding antibody-producing hybridoma culture supernatant or antibody solution to the cell pellet at 50 μL/well and suspending therein. After allowing to react for 45 minutes on ice, the plate was washed three times with a mixture of 0.1% BSA, 2 mM EDTA and PBS at 200 μL/well. The supernatant was removed and secondary antibody was added to the cell pellet at 50 μL/well followed by suspending the cells therein. ALEXAFLUOR 647@ (fluorescent compound) goat anti-rat IgG (H-L) (Life Technologies Corporation) was used for the secondary antibody after diluting 400-fold with a mixture of 0.1% BSA, 2 mM EDTA and PBS. After allowing to react for 45 minutes on ice, the plate was washed three times with a mixture of 0.1% BSA, 2 mM EDTA and PBS at 200 μL/well. After removing the supernatant, 50 ng/mL of propidium iodide, 0.1% BSA, 2 mM EDTA and PBS were added to the cell pellet at 250 µL/well followed by suspending therein. The cells stained in this manner were measured using a flow cytometer such as the Guava easyCyte 8HT (Merck Millipore Corporation) followed by analysis of the resulting data using FlowJO (Tomy Digital Biology Co., Ltd.). FACS analysis was carried out using colon cancer, brain tumor and hematologic cancer.
Cancer-detection rates were tested using monoclonal antibodies (the 669 antibody, 1052 antibody, 1105 antibody, and 1361 antibody).
In this Example, the reactivity of the antibodies to the cell lines derived from cancers which were obtained from ATCC and JCRB was analyzed by FACS.
This is another data set of the same source.

The subject of data set [5] is normal stroma. The data set can be described thus: Reactivity to normal stroma. The format is binding. Particulars: compared with the 1361 antibody.
The test system of data set [6] is normal tissues (skin, brain, small intestine, liver, heart, lung, kidney). Put plainly: Immune histochemistry of normal human tissues. In kind it is binding. As to the method:
The paraffin sections were prepared from the tissue specimens in the same way as shown in Example 6 according to a routine procedure. The prepared sections were subjected to reactions with 1 μg/mL of one of the above antibodies. An HRP-labelled anti rat antibody was used as a secondary antibody, which emitted light with DAB. The observation was performed after hematoxylin staining.

B1: clone 669: rat IgM anti-TMEM-180 monoclonal antibody; variable regions SEQ ID NOs: 78 and 79 (antibody, V domains shown)
VH: MGWICIIFLVATATGVHSQVKLLQSGAALVKPGASVKMSCKASGYTFTDYWVSWVKQSHGKSLEWIGEIYPNSGATNFNENFKGKATLTVDKSTSTAYMELSRLTSEDSAIYYCTRDGTMGIAYYFDYWGQGVMVTVSS
VL: MMAAVQLLGLLLLWVPAMRCDIQMTQSPSFLSASVGDRVTINCKASQNINRYLNWYQQKLGEAPKLLIYNANSLQTGIPSRFSGSGSGTDFTLTISSLQPEDVATYFCLQHNSWPYTFGAGTKLELK
Regarding B1, the “Detection Sensitivity of Cancers, P/N” value in data set [1] (Cancer Type: Pancreas) is “(3/9)”; in data set [4] (Cancer Type: Colon) it was “(3/10)”. For the same molecule, the “Detection Sensitivity of Cancers, Percentage (%)” value is reported as 33% in data set [1] (Cancer Type: Pancreas) and 30% in data set [4] (Cancer Type: Colon). In addition, the “detection of exosomes presenting TMEM-180 in DLD-1 culture supernatant” value in data set [2] was “successfully detected”. Also, in data set [3], the internalization into cells result is given as “concentrated at a high concentration in the cells”.

B2: 1361-7 clone: variant having an amino acid substitution S82A in the 1361 antibody (antibody, V domains shown)
VH: EVQLVESGGGLVQPGRSLKLSCVASGFTFNNYWMTWIRQAPGKGLEWVASITNTGGSTYYPDAVKGRFTISRDYAKSTLYLQMNSLRSEDTATYYCTRAGYSSYPDYFDYWGQGVMLTVSS
VL: NIQMTQSPSLLSASVGDRVTLSCKAGQNIYNYLAWYQQKLGEAPKLLIYNANSLQTGIPSRFSGSGSGTDFTLTISSLQPEDVATYFCQQYSSGWTFGGGTKLELK
Regarding B2, the “reactivity to normal stroma” value in data set [5] is reported as “almost the same as that of the 1361 antibody”.

B3: clone 1361: rat IgG anti-TMEM-180 monoclonal antibody; variable regions SEQ ID NOs: 70 and 71 (antibody, V domains shown)
VH: MDIRLSLVFLVLFIKGVQCEVQLVESGGGLVQPGRSLKLSCVASGFTFNNYWMTWIRQAPGKGLEWVASITNTGGSTYYPDSVKGRFTISRDYAKSTLYLQMNSLRSEDTATYYCTRAGYSSYPDYFDYWGQGVMLTVSS
VL: MMAPVQLLGLLLLWLPAMRCNIQMTQSPSLLSASVGDRVTLSCKAGQNIYNYLAWYQQKLGEAPKLLIYNANSLQTGIPSRFSGSGSGTDFTLTISSLQPEDVATYFCQQYSSGWTFGGGTKLELK
On to B3, for which the “Detection Sensitivity of Cancers, P/N” value in data set [1] (Cancer Type: Bladder) was “(3/4)”; in data set [1] (Cancer Type: Brest), “(2/6)”; in data set [1] (Cancer Type: Gastric), “(5/8)”; in data set [1] (Cancer Type: Kidney), “(3/3)”; in data set [1] (Cancer Type: Pancreas), “(9/9)”; in data set [1] (Cancer Type: Prostate) it was “(2/3)”. In addition, the “Detection Sensitivity of Cancers, P/N” value was “(7/7)” in data set [4] (Cancer Type: Brain) and “(7/10)” in data set [4] (Cancer Type: Colon). The “Detection Sensitivity of Cancers, Percentage (%)” value in data set [1] (Cancer Type: Bladder) came to 75%; in data set [1] (Cancer Type: Brain) it was 100%; in data set [1] (Cancer Type: Brest), 33%; in data set [1] (Cancer Type: Gastric) it was 63%; in data set [1] (Cancer Type: Kidney) it was 100%; in data set [1] (Cancer Type: Pancreas) it was 100%. Moreover, the “Detection Sensitivity of Cancers, Percentage (%)” value in data set [1] (Cancer Type: Prostate) is listed as 67%; in data set [4] (Cancer Type: Colon) it was 70%. In data set [2], the “detection of exosomes presenting TMEM-180 in DLD-1 culture supernatant” value is reported as “successfully detected”. Moreover, the “staining of normal tissues from skin, brain, small intestine, liver, heart, lung and kidney” value in data set [6] (1 μg/mL, paraffin sections) is listed as “negative”. The “reactivity to normal skin tissues” value in data set [6] (FIG. 13) is given as “low reactivity”. The “recognition of cancers, summary of Table 23” value in data set [4] (comparison of 1361, 669, 1052, 1105) is “highest sensitivity”.
